Results as given in paper PMC10689493 (Nature Communications, 2023).

T1: S2hlx-Ex19 epitope scaffold (synthetic design (Mus musculus VPS54 …))
T1 construct: source: E. coli BL-21 (DE3), purified (Ni-NTA, SEC)
T1 chain: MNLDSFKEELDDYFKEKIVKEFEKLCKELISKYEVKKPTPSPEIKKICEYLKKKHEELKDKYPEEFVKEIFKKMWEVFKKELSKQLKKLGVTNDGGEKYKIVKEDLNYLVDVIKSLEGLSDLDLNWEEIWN

T2: synthesized stem helix peptide (1140-1164) (SARS-CoV-2, UniProt P0DTC2)
T2 chain: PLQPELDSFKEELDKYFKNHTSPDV

T3: S2hlx-7 epitope scaffold (synthetic design (Rhodopseudomonas …))
T3 construct: source: E. coli BL-21 (DE3), purified (Ni-NTA, SEC)
T3 chain: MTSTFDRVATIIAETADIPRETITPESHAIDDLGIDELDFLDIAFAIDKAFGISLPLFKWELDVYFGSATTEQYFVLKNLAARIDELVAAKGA

B1: DH1501.2 (antibody, V domains shown)
VH: EVQLVESGAEVKKPGASVRLSCKASGDTFNNKYVHWVRQAPGQGLEWMGLINPSGSGTAFAQKFQGRVSMTRDTSTRTVYLGLTSLTYEDTAVYYCARMSRAGTFDIWDQGTMVTVSS
VL: EIVLTQSPGTLSLSPGDRATLSCRASENVGTSYLAWYQQKPGQAPRLLISGTSSRATGVPDRFSGSGSGRDFTLTISRLEPEDFAVYYCQQYGSSPPRYTFGQGTKLDMK
B2: CC40.8 mAb (antibody, V domains shown)
VH: EVQLLESGGGLVQPGGSLRLSCAASGFTFSSYVMTWARQAPGKGLEWVSAISGTGYTYYADSVKGRFTVSRDNSKNTLFLQMSSLRAEDTAVYYCAITMAPVVWGQGTTVTVSS
VL: SYELTQPPSVSVSPGQTARITCSGDALPKRYAYWYQQKSGQAPILVIYEDKKRPSGIPERLSGSKSGTVATLTISGAQVEDEADYYCYSTDSSGNHAVFGGGTQLTVL
notes: IgG; source: Expi293F, transfected, purified (Protein A)
B3: DH1501.1 (antibody, V domains shown)
VH: EVQLVESGAEVKKPGASVRVSCKASGFTFTDHYMHWVRQAPGQGLEWMGLINPTGVNTFYAQNFRGRVTMTRDTSTKTDYLEVRSLTSQDTAMYYCARMSRYGAFDIWGQGTMVTVSL
VL: EIVLTQSPGTLSLSPGERATLSCRASQSVGSGYLAWYQQKPGQAPRLLIYGASVRATGIPDRFSGSGSGTDFSLTINRVEPEDFAMYYCQNYGSSPPRYTFGQGTKLEIK
B4: DH1057.1 mAb (antibody, V domains shown)
VH: EVQLVESGTEVKKPGASVKVSCKTSGYIFTNYYIHWVRQAPGQGLEWMGIFNPNGGGTSYAQKFQGRITLTGNTSANTGYMVLRSLTSEDTAVYYCARDPRTSGDNDGFDMWGQGTKVTVSS
VL: VLTQSPATLSLSPGERATLSCRASQSLSSYNYLAWYQQKPGQAPRLLIYAASKRATGIPARFSGSGSGTDFTLTISSLEPEDFAVYFCQQRSNRPPAWTFGQGTKVEIK
notes: source: Expi293F, transfected, purified (Protein A)
B5: S2P6 mAb (antibody, V domains shown)
VH: EVQLVQSGAEVKKPGASVKVSCKASGYTFTSQYMHWVRQAPGQGLEWIGIINPSGVHTSYAQKFQGRVTLTRDTSTSTLYMELSSLRSEDTAVYYCARGSPKGAFDYWGQGTLVTVSS
VL: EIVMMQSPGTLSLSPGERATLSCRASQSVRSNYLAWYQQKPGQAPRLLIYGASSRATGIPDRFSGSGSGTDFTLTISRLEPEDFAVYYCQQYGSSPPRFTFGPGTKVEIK
notes: IgG; IGHV1-46/IGKV3-20; source: Expi293F, transfected, purified (Protein A)
B6: DH1501.3 (antibody, V domains shown)
VH: QVQLVQSGAEVKKPGASVRLSCKASGDTFTNEYVQWVRQAPGQGLEWMGLINPSGSGTAFARNFQGRVSMTRDTSTRTVYMDLTSLRYEDTAVYYCARMSRAGTFDLWGQGTMVTVSS
VL: EIVLTQSPDTLSLSLGERATLFCRASETIDSRYLAWYQQKPGRAPRLLMSGTSVRATGIPDRFSGSGSGTDFTLTITRLEPEDFAVYYCQQYGSSPPRYTFGQGTKLAMK

Key:
[1] = target: biotinylated SARS-CoV-2 Spike protein (WA-2, 2 P) (SARS-CoV-2 WA-2 (entry: reference …, UniProt P0DTC2, stabilised, biotinylated))
[2] = target: T4, synthesized SARS-CoV-2 stem helix peptide (residues 1147-1161) (SARS-CoV-2, UniProt P0DTC2); test: ELISA; conditions: both partners purified
T4 construct: source: synthetic peptide

OC43 Spike protein, 2 P = OC43 Spike protein, 2 P (human coronavirus OC43, isolate not …, UniProt P36334, stabilised); test: ELISA; conditions: both partners purified
[3] = target: T1, S2hlx-Ex19 epitope scaffold; test: SPR; conditions: both partners purified
[4] = target: T2, synthesized stem helix peptide …; test: ELISA; conditions: both partners purified
S2hlx-7 epitope scaffold = target: T3, S2hlx-7 epitope scaffold; test: SPR; conditions: both partners purified

Binder | binding result [1] | binding result [2] | binding result (OC43 Spike protein, 2 P) | further results
B1 | binds | – | – | –
B2 | – | no binding | binds | Kd [3]: 6.7 nM
B3 | binds | – | – | –
B4 | – | binds | – | binding result [4]: binds; fold better binding than spike (S2hlx-7 epitope scaffold): > 10 fold
B5 | – | – | binds | –
B6 | binds | – | – | –
